Results on 22 sequences are retold here after the DeepSol protein solubility set.

A short description of this data set: soluble on expression in E. coli; label from the status in PepcDB or PDB records.
For “MAFKPVSITGTRRQAGQALGKLARPLMATYLEQSTVWAALRPWRGHAYLEALAHEASQALPEIWDELEGLAEGLRMPLVDILLWNCRGDLLHKTSDGCTSIAWRGDEDARWIAHNEDGDPFLYGRCHMVDVRTDDAPGYISFYYPGSLPGHTFGANRAGLVQTINNVRIRQRHAGVPRMLLARAVLDCATLDDALAVLRDHPRAGGFHHTLGAAGEPRLYSVEASPAACSIGEVARGNGHANHLVHPGSEAIGQIVTDSSRSRQRHIENLMDHWQPPVDGARLVATLLDREGELPILRCGADDPDEENTLATALFEMRDGGLTLQVHDRRDQPALRVTVCPAALEHHHHHH”, the “soluble on expression in E. coli” value is “not soluble”.
Next, “MKRFAFFDVDDTLITVKSMFDFFRYWTLEWRRESAALEAFEREFSQLRAAGESRENLNRAYYRYFAGIRSEDIERAGAAWASAWLAHPERFFIAAPVHLLRELSADGVEPVFVSGSFDAVLRPIADHLSVTNILAAPLELRADGCYTGRIGTPQTIGAGKAVAIRNFLSEQKVRADVCLAVGDDISDLPMLQSVGTAVVVGEHPQLTEIADARSWRRLPAMAE”: “not soluble”.
The same measure for “MGSDKIHHHHHHMVILHIIAGLEKGGAESTLKRLCLNGTEHEHVVVSLSTLGSVGLELQKAGVKVYCLDIRPSITSVAAIFRLYKIIKLRKPSVVQTWMYHADLVGGIVSRVAGVKKIYWGVHHTYLIKGQSKRVTIFISRINSVLSHFIPTKIVYCANSARVAQEKIGYNKKSGIVIFNGYDTSKFKRDLKLRSVYREKLGLKETDFVIGHVGRYDSLKDYPNLINAIRKVKYKVGGLKVILVGAGLSKDNRELLNVISESTLISKFHLLGPSDDIPGIMNAIDVFVLSSSSEAFPNVLNEAMACGTPCVSTDVGDASAIVGMTGWLSAAGDSSALAEKIYAAYKEFSENKANWEERQYSCRERIVTNFSSQSMVSNYTLLWQS”: “not soluble”.
The same measure for “MNRFIIADATKCIGCRTCEVACAVSHHENQDCAALSPDEFISRIRVIKDHCWTTAVACHQCEDAPCANVCPVDAISREHGHIFVEQTRCIGCKSCMLACPFGAMEVVSSRKKARAIKCDLCWHRETGPACVEACPTKALQCMDVEKVQRHRLRQQPV”: “not soluble”; for “MSMIYKNIVCPVCGAACDDIQVEFGDGKIEARNACKMGNAKFQEVVSSHRLRQPLIKVNGRLTAAAWDEALERAADILVSAKRPLLFMGSETSCEAHEVGLKIGEYLGALVDSNATICHGPTAMGIQESGKVGATEGQKKNRGDLIVYWGTNPLESMPRQMSRYGVFPRGYWTKRGRFDRTVITVDPRKTPTTEASDLHVQLKPGSDYELISALLTLLHGKTPHPSVEEITGVPIPVMEEMLDMMKNCNFGAISVGLGLSSSIGKHRNAEIAMNLVKELNNYAKFTLGALRGHCNVAGFNQVASYMYGYPFGLDFMRGHPRYNPGEYTTVDVLREKDVDAAFVMCADLVCHIPADCASYLAEIPMVCLDIAPCPSTAASDVVLPGVIDAMECDGTFYRLDDVAVHFEPFTSSPFEFTKSNEDTLKQLFEKIKARK”: “not soluble”; for “MKRILLLGGITEALAIARKLGPEHIYSLAGVGRVPTDLACQLKVGGYGGAEGMAQYIRDQGVDLLLDATHPYAAQISRNAALAARIAGIPCWALRRTAWQPGPDDDWREVADWSALVTALAPFKRPLFTLGREPLQHLNEIPKHQFWTLRALDSYPGNDRCEVIGARGPFVLEDERQLFEQRNIDVLISKNSGSSSTEPKLDVARERGLPVLILKRPQLPDVDRILWSVDEVLGVLGLAETSPKPR”: “not soluble”.
For “MMETEVAVVPLTPLDIHNKEFSRGFRGYDEDEVNEFLDQVIKDYEMLIREKKQLEEKVAELTEKLNYFANIEETLNKSILVAQEAAEEVKRNAQKEAKLIIKEAEKNAERIISDALAKSRKIALEIEELKRQSKVFRARFRMLVEAQLDMINSRDWDELMEYEAPDLEEGAREPLSQP”, the “soluble on expression in E. coli” value is listed as “not soluble”.
As for “MAHHHHHHMIVLLRKNNLKNTLRLFPLGCNNKLVFMRGYINEQTKGPIEKKTTDNNEKMLLNKTLEDVKVSKENSCNALFDECLEELYRMKKKVDKESVEYDNSPIIEELNREELKITRNIFERINKKKKHVSNLSYKDIYIDPYWNPFKDVDNLKQEILYEFNEYSKMASIVELKKQRRAIKKSLKEQYKLYNPYSEEYNKHFNLNMDNDVKEQQMECHDKDEKYWNPSFNKRKILNIKSPFIWRYTHLLHHFIGENGLILPRKINMTTRKQQIQIFKSICIARRMALYPYDKKPEKDDLIPLMDPLQFLLDELIHRYIQLNDLRAQAIIKVMINRYPSLNYYKYFFYESKKEKDKNEKTAQNEQEENVSEKKEPFSQMLQKYKKNYYENFYKY”, the “soluble on expression in E. coli” value is “not soluble”.
Next, “MSEEVWNGNQGILSVYVSKARDLPNLNKLDKQNVMLRLRIAHMTRASNTLHRAGQNPVFHYLEKFDITPEIKPLMYVEVYCDRRKKSPLPIGRCEIDLLNAIRADPKEGYCTWYELKRSGDEFAGTIFIELTFTPKVPRLNRDDLNKEMDRLDSSMAMRPIPPLPTESEYDYVHGSTMRQITPQCVSTSHEDKDEGQPYRNGNVFSMSSKSDTAVLANSNDPIILPPTFSASMGTTSTLETNDTAISNTSNTKFHFANLRKLKEKINIFKNPDSSTNNCQNESNKVDIEALQKAIGVTSLSYDEDDDDDDENDAFYSSSHRVSHNYNQPPLPPIPTRDDMSNYSSSRNTPLVRRDRPSRLDSSSPNSHPHPSGLNSPKLPPLPTTSNSNFNSRKNSMSPTRKRPPPRLS”: “soluble”; “MNRIFCALMRADAARFREVVFPCALLQNHPHQFPHVLARLEFFAPPDQRNCLLLPRVLVKRSLAAKEPSKVNFLSVNLRKELHEEAKSSKKTNLK”: “not soluble”.
Consider “MDIPIPTRQLFINGDWKAPVLNKRIPVINPATQNIIGDIPAATKEDVDVAVAAAKTALTRNKGADWATASGAVRARYLRAIAAKVTEKKPELAKLESIDCGKPLDEAAWDIDDVAGCFEYYADLAEKLDARQKAPVSLPMDTFKSHVLREPIGVVGLITPWNYPMLMATWKVAPALAAGCAAILKPSELASLTCLELGEICKEVGLPPGVLNILTGLGPEAGAPLATHPDVDKVAFTGSSATGSKIMTAAAQLVKPVSLELGGKSPLVVFEDVDLDKAAEWAIFGCFWTNGQICSATSRLILHESIATEFLNRIVKWIKNIKISDPLEEGCRLGPVVSEGQYEKILKFVSNAKSEGATILTGGSRPEHLKKGFFIEPTIITDVTTNMQIWREEVFGPVLCVKTFSTEEEAIDLANDTVYGLGAAVISNDLERCERVTKAFKAGIVWVNCSQPCFTQAPWGGVKRSGFGRELGEWGLDNYLSVKQVTQYISEEPWGWYQPPAKL”, for which the “soluble on expression in E. coli” value is “soluble”.
The same measure for “MSLDRLIHWYNMAVYPSIFATMLPVDPRRALGAFLRSHRERLPPPPLALGRRRTPGWRREELAEACGVSLTWITWLEQGRDVSASPHALARLAEALHLAPAERGYLFELAGRRDPVSPVASDDGIPPAVLALPGHMNVPAYLLDRTWTARAWNSAASRLFTGWLDGDHDRNLLRFIFLSPAAPRLIADWDQRAHRVVAEFRADFSRRLRDPALQALVESLAAQSQAFRTLWHEQAVLDREGGERSFLNPARRFHQSTLILAANADIKLVSLVPMDGEEFEGHHHHHH”: “soluble”; for “MDAVQELERRIVELEIQSALQEDVIAGLNAMVAELRQTLDLQQAQLRLLYQKMQDRNPDAQEPYSLRDEIPPHY”: “not soluble”; for “MGSDKIHHHHHHMNIYDQLQAVEDRYEELGELLSDPDVVSDTKRFMELSREEANSRETVAVYREYKQVVQNIADAQEMIKDASGDPELEEMAKEELKNSKVAKEEYEEKLRFLLLPKDPNDDKNIILEIRGAAGGDEAALFAGDLLNMYQKYAENQGWKFEVMEASANGVGGLKEVVAMVSGQSVYSKLKYESGAHRVQRVPVTESQGRVHTSTATVLVMPEVEEVEYEIDPKDLRVDIYHASGAGGQNVNKVATAVRIIHLPTNIKVEMQEERTQQKNRDKAMKIIRARVADHFAQIAQDEQDAERKSTVGTGDRSERIRTYNFPQNRVTDHRIGLTLQKLDSILSGKLDEVIDALILYDQTQKLEELNK”: “soluble”.
The same measure for “MDHPVQLSIENPAVSMDSTGQILWAVQSEIQAVYLRSLFEQKEANDGERLTLSVKNLGSSEISPQTLAHSSNGHFFMACGDGKYIVYTYKQYDAIALKIRHYGQGLEFVWAAHPNMFAVRESATNVKIKKNFKDHKSIRSDMMLEGISGGPLLALRSNDSLCFFDWESAALVRRIEITSKSVYWSDNREMVAICGDDSFYVFKYSAEAVANATEVTEDGIEDAFKVIGEQAEAVETGFWIGDCFIFTTALTINRINHYAGGEIVTVAHVDRPLCLLGYMAEDSRVYAVDKDLNVISYELFQSDLEYQTATMRRDIGTRGGPQICRICRLPSSANLPNLPSTANFKKVDLPNLPSSANFEICRTQYNFD”: “not soluble”; for “MSVIRKEDGAGGKYMVELLKKHVFPKIASRAGEIALEDMEDSSDFCDDFAFTTDSYVVSPPIFRGGSIGSLSVCGTSNDLAVMGAKPEFMSLALVIQDGFPLGDFRRIMDDIRDSVELVNLSIITGDTKVVESNVGIIVNTAGIGRRSEELERNLEVLRELRDYPYRWVRDKGLKEGDAIIVSGSIAEHAAVIMAERMGFEVEFKSDVYPVWLFVREALRRGGVTAMKDPTRGGIAAALNEMAEKSGVGIKIFEERIPLKDEVRGLCELLGLDPLTMANEGKVVFGVHPEMADEVLKALHKAGQKEAEIIGYATKEFAEVVLETAVGTTRVVPQPISDPIPRVC”: “not soluble”; for “MVTNVEGDMNYCCKVDLKPWHFWNKKGYKSFDVEGNPVEVYWDFRSAKFTSSPEPSSDFYVALVSEEEVVLLVGDYKKKAFKRTKSRPALVEAALFYKKENVFGKKCFTTRAKFYDRKKEHEIIVESSTSGPKEPEMWISIDGIVLIQVKNLQWKFRGNQTVLVDKQPVQVFWDVYDWLFSMPGTGHGLFIFKPGTTEDSDMEGSGHGGGGGGESDTSTGSRYYSTKSSNPWPPEFCLFLHAYKLE”: “soluble”.
The same measure for “MSVEFYNQNAQQFFSSTVEVDSTSLLDQFVPYLPQGGLVLDAGCGSGRDSKRFLDMGYQIDAFDASAPLAALAEELLNQSVTVTTFENFTSSKRYDGIWACASLLHVTRESLPETFAHLAKMLKCGGAFYCSFKYGQDEVERDGRRFTNCNEVLLNQLLTSSPLAIDKLWVTQDLRAGREHEQWLNAILIKRLEHHHHHH”: “soluble”.
In the case of “MNLSNHFLIAMPDMEDAFFSQSVVYICKHDEDGALGIAINKPSPITMDMIFSATGKNIPMRMQHDSVMMGGPVQVERGYVVHTPIGNWQSSIGVSDNIALTSSRDVIENISREGAVDKALISIGYSSWSKGQLERELADNAWLTVPADEHILFDIPYEHRYAAAFAKLGIDPLALFSGAGHA”, the “soluble on expression in E. coli” value is reported as “not soluble”.
The same measure for “RLHSDNVYLIENNVFGTTCARVGCMPSKLLIAAAEARHHALHTDPFGVHLDKDSIVVNGEEVMQRVKSERDRFVGFVVADVEEWPADKRIMGSAKFIDEHTVQIDEHTQITAKSFVIATGSRPVILPQWQSLGNRLIINDDVFSWDTLPKRVAVFGPGVIGLELGQALHRLGVKVE”: “not soluble”; for “MLEKLWPFGRSRVRKAVEEALEKAFQDVGEVLEPLSELSEHEDHYLLRVEVPGLGPENLEVRLEGDQLVIEGEKREEKRAKHLAEIVYGRIYRAYLLPKDAKKEGIEARLAKGVLEVRIPREKRPEEPPVRIPIQES”: “soluble”.
Next, “IVMADWLKIRGTLKSWTKLWCVLKPGVLLIYKTQKNGQWVGTVLLNACEIIERPSKKDGFCFKLFHPLEQSIWAVKGPKGEAVGSITQPLPSSYLIIRATSESDGRCWMDALELALK”: “soluble”.
